This assay concerns the target T1, OB-R (Homo sapiens, UniProt P48357).
T1 construct: After confirming via Western that the primary EEC and ESC and endometrial cell lines utilized herein had OB-R; endogenous in cells; host or cells: primary human EEC and ESC; Ishikawa (ECACC 9832301) and HES cell lines
T1 sequence (P48357 22-1165): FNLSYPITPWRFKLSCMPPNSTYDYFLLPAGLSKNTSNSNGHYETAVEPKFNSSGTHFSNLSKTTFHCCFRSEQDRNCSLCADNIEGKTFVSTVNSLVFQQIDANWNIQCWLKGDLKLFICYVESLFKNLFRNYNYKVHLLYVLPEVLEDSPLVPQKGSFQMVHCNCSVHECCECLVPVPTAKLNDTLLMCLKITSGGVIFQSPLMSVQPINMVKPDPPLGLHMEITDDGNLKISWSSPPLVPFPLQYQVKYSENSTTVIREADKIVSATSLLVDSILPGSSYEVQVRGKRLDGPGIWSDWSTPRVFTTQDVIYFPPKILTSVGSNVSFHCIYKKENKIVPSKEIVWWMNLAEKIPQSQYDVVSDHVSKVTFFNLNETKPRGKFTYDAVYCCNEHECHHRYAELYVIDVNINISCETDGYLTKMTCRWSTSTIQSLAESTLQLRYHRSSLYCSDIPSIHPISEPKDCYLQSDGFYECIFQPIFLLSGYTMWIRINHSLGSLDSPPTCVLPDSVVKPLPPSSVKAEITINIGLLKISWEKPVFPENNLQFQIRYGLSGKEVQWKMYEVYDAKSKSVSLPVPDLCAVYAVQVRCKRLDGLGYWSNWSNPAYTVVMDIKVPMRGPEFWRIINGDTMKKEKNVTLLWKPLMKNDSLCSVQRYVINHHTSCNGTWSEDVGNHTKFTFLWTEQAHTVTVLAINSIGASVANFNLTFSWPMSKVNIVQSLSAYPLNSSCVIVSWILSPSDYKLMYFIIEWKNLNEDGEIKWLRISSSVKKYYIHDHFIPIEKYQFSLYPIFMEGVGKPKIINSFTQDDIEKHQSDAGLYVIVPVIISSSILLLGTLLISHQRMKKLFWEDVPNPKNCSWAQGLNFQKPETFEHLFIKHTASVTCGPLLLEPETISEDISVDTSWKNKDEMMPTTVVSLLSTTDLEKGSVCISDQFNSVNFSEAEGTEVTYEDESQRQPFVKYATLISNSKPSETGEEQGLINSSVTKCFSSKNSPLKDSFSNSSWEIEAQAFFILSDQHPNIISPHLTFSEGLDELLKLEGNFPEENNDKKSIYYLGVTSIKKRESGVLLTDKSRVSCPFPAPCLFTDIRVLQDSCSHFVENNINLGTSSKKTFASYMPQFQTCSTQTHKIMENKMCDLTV
As to the kind of experiment: IL-1β and IL-1Ra levels in conditioned medium of human endometrial epithelial cells (ELISA). To be noted: EEC, leptin 10 nM, 24 h; for effect on leptin-induced increase in IL-1Ra levels / effect on leptin-induced increase in IL-1β levels: LPA-2 30 μM. It counts as cell-based. As for the experimental part: Primary human endometrial cells (ESC and EEC) were cultured for 5-9 days in DMEM-F12 medium containing 5% fetal bovine serum (FBS), 5 μg/ml insulin, 1% amphopthericin B, 100 μg/ml streptomycin and 100 U/ml penicillin until they were 80% confluent. Two types of endometrial epithelial cell lines, HES (originally derived from a benign proliferative endometrium) and Ishikawa (human endometrial epithelial adenocarcinoma, ECACC 9832301, Wiltshire, England) were cultured under the same conditions described above. The cells were washed twice with 100 mM phosphate saline buffer (PBS), pH 7.2 and cultured for additional 2 days in the same medium but without FBS (basal medium). Cells were washed as described before and cultured in basal medium containing leptin (0, 3, 10 or 62 nM) or IL-1β (0.6, 3 and 10 nM).
The anti-OB-R antibody (10 and 20 μg/ml) and LPA-2, a specific inhibitor of OB-R (3, 120, 300 nM or 30 μM) were used to assess whether leptin-induced effects were regulated primarily by the OB-R. Non-specific species-matched IgGs to the OB-R antibody and a scrambled version of LPA-2 (LPA-2Sc) served as negative controls (Gonzalez and Leavis, Endocrine 21: 185-195 (2003)). Inhibitors of IL-1R were used (monoclonal antibody anti-IL-1R tl and IL-1Ra) to assess whether leptin activated IL-1 induced signaling pathways or just activated similar components responsible for LIF/LIF-R expression. Treatment with the cytokine, inhibitor or the two combined was implemented for 5, 15, 30 and 60 min, and 24 and 48 h. The cells were prepared for Western blot analysis. The conditioned media was collected, lyophilized and stored at −80° C. until analysis for LIF, IL-1β and IL-1Ra by ELISA could be performed. Duplicate wells were run for each treatment and the experiments repeated at least three times with different cell preparations.
Conditioned media from cells cultured under the experimental conditions described above were used to quantify the secretion of LIF, IL-1β and IL-1Ra by ELISA (Quantikine®, R&D Systems). The experiments were replicated three times and standards, controls, and samples were assayed in duplicate. Cytokine concentrations as determined by ELISA were within the range of the standard curve and were expressed in pg/ml/mg protein. The intra- and interassay coefficients of variation were between 5-8% and 8.5-10%, respectively. The lowest detectable concentration of each cytokine by ELISA was LIF (9 pg/ml), IL-1 (0.11 pg/ml) and IL-1Ra (15.6 pg/ml). These concentrations are similar to those reported by the manufacturer. LIF-ELISA is reported by the manufacturer to have a sensitivity of less than 8 pg/ml for both natural and recombinant human LIF and 100% specificity (no significant cross-reactivity or interference with a diversity of human and mouse cytokines and growth factors was observed). The performance characteristics for human IL-1β and IL-1Ra ELISAs reported are: 100% specificity, sensitivity 0.1 pg/ml and 14 pg/ml, respectively.
(In an ELISA, binding on a coated surface is turned into a signal by an enzyme label.)

These results are taken from patent publication US8058228B2, “Leptin peptide antagonists” (Boston Biomedical Research Institute, priority 2004, dated 2011).

Regarding “SRNVIQISNDLENLRDLLHVLAFSKS [LPA-2, 26 amino acid peptide, residues 70-95 of helix III of the human leptin molecule; leptin peptide antagonist]”, the “effect on leptin-induced increase in IL-1Ra levels” value is “abrogated” and the “effect on leptin-induced increase in IL-1β levels” value is “abrogated”.

For the substance “VAEVLNRSDLIQRISFSLDLNNSKLH [LPA-2Sc, scrambled version of LPA-2, negative control, reference compound]”, the “effect on leptin-induced increase in IL-1Ra levels” value is given as “not affected” and the “effect on leptin-induced increase in IL-1β levels” value is “not affected”.

Take “leptin: human recombinant leptin (R&D Systems), OB-R ligand used as stimulus”: the “IL-1Ra levels after leptin” value is “elevated levels” and the “IL-1β levels after leptin” value is on record as “elevated levels”.
